{"source": "paper PMC3293397", "about": "(Biochemistry, 2012)", "proteins": {"B1": {"name": "S. elongatus KaiC E318A mutant protein (enzyme, Synechococcus elongatus PCC 7942, UniProt Q79PF4 1-519, looked up)", "chain": "MTSAEMTSPNNNSEHQAIAKMRTMIEGFDDISHGGLPIGRSTLVSGTSGTGKTLFSIQFLYNGIIEFDEPGVFVTFEETPQDIIKNARSFGWDLAKLVDEGKLFILDASPDPEGQEVVGGFDLSALIERINYAIQKYRARRVSIDSVTSVFQQYDASSVVRRELFRLVARLKQIGATTVMTTERIEEYGPIARYGVEEFVSDNVVILRNVLEGERRRRTLEILKLRGTSHMKGEYPFTITDHGINIFPLGAMRLTQRSSNVRVSSGVVRLDEMCGGGFFKDSIILATGATGTGKTLLVSRFVENACANKERAILFAYAESRAQLLRNAYSWGMDFEEMERQNLLKIVCAYPESAGLEDHLQIIKSEINDFKPARIAIDSLSALARGVSNNAFRQFVIGVTGYAKQEEITGLFTNTSDQFMGAHSITDSHISTITDTIILLQYVEIRGEMSRAINVFKMRGSWHDKAIREFMISDKGPDIKDSFRNFERIISGSPTRITVDEKSELSRIVRGVQEKGPES", "modifications": "phosphothreonine at T432 in five of the six subunits; no S431 phosphorylated"}}, "biological_target": "the molecule itself", "assay": "crystal structure"}
{"protein": "B1", "values": [{"measurement": "binding result", "result": "binds"}]}
